Where no end group is shown, it is not given here. [ ]: non-standard residue; d: D form. hCit = NC(=O)NCCCC[C@H](N)C(=O)O
target: T1, HLA-DP4 (Homo sapiens, UniProt P04440+P20036); assay: DP4 competition assay with biotinylated Hep B peptide; conditions: inhibition of biotinylated Hep B binding to HLA-DP4; 5 fold excess test peptide, equal amount for unlabelled Hep B
T1 sequence (P20036 29-260): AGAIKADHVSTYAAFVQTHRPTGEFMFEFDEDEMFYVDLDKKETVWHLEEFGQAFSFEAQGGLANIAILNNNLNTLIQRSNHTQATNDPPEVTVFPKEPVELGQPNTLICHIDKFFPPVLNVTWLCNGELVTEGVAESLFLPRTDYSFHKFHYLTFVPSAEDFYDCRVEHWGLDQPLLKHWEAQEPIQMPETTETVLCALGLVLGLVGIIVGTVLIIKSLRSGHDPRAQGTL
T1 sequence (P04440 30-258): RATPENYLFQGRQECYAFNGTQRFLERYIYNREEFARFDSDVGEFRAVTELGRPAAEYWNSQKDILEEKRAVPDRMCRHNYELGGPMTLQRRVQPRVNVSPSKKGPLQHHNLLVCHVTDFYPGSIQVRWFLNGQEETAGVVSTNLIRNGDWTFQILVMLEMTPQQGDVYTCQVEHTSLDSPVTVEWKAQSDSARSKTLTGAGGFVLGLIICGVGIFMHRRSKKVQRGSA
Description: 2×T175 gave 2.5×10^7 B16 HHDII/DP4 (B16F1 β2M H2Ab1 dKO A35 HHDII/DP4 H7/2E9/F9 p14) cells. This was enough for 5 preps using the following protocol with Mem-PER™ Plus Membrane Protein Extraction Kit (thermo-scientific cat #89842).
5×10^6 cells were resuspended in the growth media by scraping the cells off the surface of the plate with a cell scraper and then centrifuged at 300 g for 5 mins. The cell pellet was washed with 3 ml of Cell Wash Solution and centrifuged at 300 g for 5 mins. The supernatant was removed and discarded. The cells were resuspended in 1.5 ml of Cell Wash Solution and transfer to a 2 ml centrifuge tube and centrifuged at 300 g for 5 mins. The supernatant was discarded. 0.75 ml of permeabilization buffer was added to the cell pellet and vortexed briefly to obtain a homogeneous cell suspension and incubated for 10 mins at 4° C. with constant mixing. The permeabilized cells were centrifuge for 15 mins at 16,000g before carefully removing the supernatant containing cytosolic proteins and transfering to a new tube. 0.5 ml of solubilization buffer was added to the pellet and resuspend prior to incubating at 4° C. for 30 minutes with constant mixing prior to centrifugation at 16,000g for 15 mins at 4° C. The supernatant containing solubilized membrane and membrane-associated proteins was transfered to a new tube. Aliquots were frozen at −80° C. for future use. 12.5 μl Halt™ Protease and Phosphatase Inhibitor Cocktail, EDTA-free (100X) thermo-scientific (Catalog number 78445) was added prior to freezing.
High binding plates were coated with streptavidin (Sigma S4762 at 1 mg/ml) 1/500 in PBS and incubated overnight at 4° C. The plates were blocked with 1% BSA in PBS for 4 hrs at room temp and washed 3×PBS/0.5% Tweenx. 450 μl of cell prep lysate (B16F1 B16 HHDII/DP4 H7/2E9/F9) was mixed with 50 μg test peptide (see below) or 10 μg of unlabelled Hep B peptide for 30 mins. 10 μg biotinylated Hep B peptide was added & incubated for 4 hrs at 37° C.:
Lysate/peptide mix was added to the plates at 100 μl/well and incubated for 4 hrs at room temperature. Plates were washed 3× with PBS/0.5% Tween. 100 μl per well of Leinco anti-Human HLA-DP4 clone B7/21 #H260 1 mg/ml at 1/500 dilution in 1% BSA/PBS was added and incubated for 1 hr at room temperature prior to washing 3× PBS/0.5% Tween. Goat anti-mouse lgG3-HRP at 0.5 mg/ml 1/500 100 μl per well (Invitrogen #M32607) diluted in 1% BSA/PBS) was added for 1 hr at room temperature prior to washing and adding 150 μl of TMB substrate to each well. The reaction was stopped with 50 μl of 2N H2SO4 and plates read plate at 450 nm.
To ensure that the biotinylation of Hep B had not interfered with its binding, HLA-DP4 was incubated with equal amounts of biotinylated and unlabelled Hep B peptide. Unlabelled peptide competed equally reducing binding by 47% (FIG. 53b).
The biotinylated HepB peptide was then incubated with a 5 fold excess of the unlabelled homocitrulline peptides. All peptides inhibited the binding of biotinylated Hep B to HLA-DP4 but to varying levels (FIG. 53c-e).

Row | Substance | % inhibition [%]
1 | EIN-hcit-RTEMENEFVLI-hcit-hcit-DVDE (EIN[hCit]RTEMENEFVLI[hCit][hCit]DVDE) [Cyk8 182-202 Hcit] | 61
2 | HACTQ-hcit-FSH(N)EEIAMATVTA (HACTQ[hCit]FSHNEEIAMATVTA; not fully specified; printed as HACTQ-hcit-FSH(N)EEIAMATVTA) [Aldolase A 238-256 Hcit] | 73
3 | IGGVILFHETLYQ-hcit-ADDGRP (IGGVILFHETLYQ[hCit]ADDGRP) [Aldolase A 74-93 Hcit] | 69
4 | KFASFID-Hcit-VRFLEQQN-Hcit-MLE (KFASFID[hCit]VRFLEQQN[hCit]MLE) [Cyk8 101-120 Hcit] | 71
5 | LEQQN-hcit-MLET-hcit-WSLLQQQ-hcit-T (LEQQN[hCit]MLET[hCit]WSLLQQQ[hCit]T) [Cyk8 112-131 Hcit] | 64
6 | LREYQELMNV-hcit-LALDIEI (LREYQELMNV[hCit]LALDIEI) [Cyk8 371-388 Hcit] | 72
7 | NYID-Hcit-VRFLEQQN-Hcit-ILLAEL (NYID[hCit]VRFLEQQN[hCit]ILLAEL) [Vimentin 116-135 Hcit] | 44
8 | hcit-DGADFA-hcit-WRCVL-hcit-IGEH ([hCit]DGADFA[hCit]WRCVL[hCit]IGEH) [Aldolase A 140-157 Hcit] | 76

same assay, conditions: inhibition of biotinylated Hep B binding to HLA-DP4; 5 fold excess test peptide, equal amount for unlabelled Hep B; listed as Cyk8 281-399 Hcit

Row | % inhibition [%] | Substance
9 | 60 | hcit-LALDIEIATYR-hcit-LLEGEE ([hCit]LALDIEIATYR[hCit]LLEGEE) [Cyk8 381-399 Hcit]

Reference: patent US12458688B2, “Epitopes” (Scancell Limited, priority 2018, dated 2025)
